In patent publication US20230220111A1 (BEIJING TUO JIE BIOPHARMACEUTICAL, published 2023):
Substitutions are numbered along the chain they refer to.

B1: BAY1213790 (antibody, human IgG1, kappa, V domains shown)
VH: EVQLLESGGGLVQPGGSLRLSCAASGFTFSQYGMDWVRQAPGKGLEWVSGIGPSGGSTVYADSVKGRFTISRDNSKNTLYLQMNSLRAEDTAVYYCTRGGPYYYYGMDVWGQGTTVTVSS
VL: DIQMTQSPSSLSASVGDRVTITCQASQDISNYLNWYQQKPGKAPKLLIYDASNLETGVPSRFSGSGSGTDFTFTISSLQPEDIATYYCQQADSFPVTFGGGTKVEIKR
B2: antibody 3871 (antibody, V domains shown)
VH: QVQLVQSGAEVKKPGSSVKVSCKASGFNIKDDYMHWVRQAPGQGLEWMGWIDPENGDTEYASKFQGRVTITADESTSTAYMELSSLRSEDTAVYYCLYGNFYYFDYWGQGTTVTVSS
VL: EIVLTQSPATLSLSPGERATLSCSASSSINYMHWYQQKPGQAPKRWIYDTSKLASGVPARFSGSGSGTDFTLTISSLEPEDFAVYYCHQRSFSPLTFGQGTKLEIK
notes: Humanized from 3807: VH is 3807-VH1 and VL is 3807-VL3
B3: antibody 3882 (antibody, human IgG4 S228P, kappa, V domains shown)
VH: B2 VH with F27G, N28T, I29F, K30S
VL: EIVLTQSPATLSLSPGERATLSCSASSSINYMHWYQQKPGQAPKRWIYDTSKLASGVPARFSGSGSGTDFTLTISSLEPEDFAVYYCHQRSFSPLTFGQGTKLEIKR
B4: antibody 3875 (antibody, V domains shown)
VH: B2 VH with E74T, T76A, S77N
VL: B2 VL
notes: Humanized from 3807: VH is 3807-VH5 and VL is 3807-VL3
B5: antibody 0012 (antibody, V domains shown)
VH: QVQLQQSGAEVKKPGASVKVSCKVSGYTLTELSMHWVRQAPGKGLEWMGGFDPEDGETIYAQKFQGRVTMTEDTSTDTAYMELSSLRSEDTAVYYCATDPHRTWWRYFDWLYPRGMDVWGQGTTVTVSS
VL: EIVMTQSPGTLSLSPGERATLSCRASQTVGKNYLAWYQQKPGQAPRLLIYGASNRATGIPDRFSGSGSGTDFTLTISRLEPEDFGTYYCQQFRSYPYTFGQGTKVEIK
B6: antibody 1209 (0012-K3) (antibody, human IgG1, kappa, V domains shown)
VH: B5 VH with E31S, L32I, S33L, E54Q, I59V
VL: EIVMTQSPGTLSLSPGERATLSCRASQTVGKNYLAWYQQKPGQAPRLLIYEASVRALGIPDRFSGSGSGTDFTLTISRLEPEDFGTYYCQQFRSYPYTFGQGTKVEIKR
B7: antibody 3807 (antibody, V domains shown)
VH: EVQLQQSGAELVRPGTSVKLSCIASGFNIKDDYMHWVKQRPEQGLEWIGWIDPENGDTEYASKFQGKATITADTSANTAYLQFSSLTSEDTAVYYCLYGNFYYFDYWGQGTTLTVSS
VL: QIVLTQSPAIMSASPGEKVTMTCSASSSINYMHWYQQKPGTSPKRWIYDTSKLASGVPARFSGSGSGTSYSLTISSMEAEDAATYYCHQRSFSPLTFGAGTKLELK
notes: Murine variable regions; also called murine antibody 3807; hybridoma clone 3807
B8: antibody 1267 (Kg3g) (antibody, human IgG1, kappa, V domains shown)
VH: B5 VH with Q5V, E31S, L32I, S33L, E54Q, I59V
VL: B6 VL with M4L, G85A, T86V
notes: Heavy chain is VH + human CH1 + IgG1 Fc

Target: T1, Human FXI protein (coagulation factor XI) (human, UniProt P03951 19-625)
Assay: cell-based or functional assay

| aPTT1.5 (concentration prolonging aPTT by 50% relative to PBS), human blood [µg/mL] | Binder |
| --- | --- |
| 2.15 | B1 |
| 0.88 | B2 |
| 0.63 | B3 |
| 0.87 | B4 |
| 14.6 | B5 |
| 4.68 | B6 |
| 1.33 | B7 |

Target: monkey FXI (in monkey plasma) (monkey)
Assay: cell-based or functional assay

| aPTT1.5 (concentration prolonging aPTT by 50% relative to PBS), monkey blood [µg/mL] | Binder |
| --- | --- |
| 2.73 | B1 |
| 1.12 | B2 |
| 1.14 | B3 |
| > 8.33 | B5 |
| 4.08 | B6 |
| 1 | B7 |

Target: T2, Human FXIa protein (activated coagulation factor XI) (human, UniProt P03951 19-625)
T2 construct: Bought from Enzyme Research Laboratories (HFXIa 1111a); also called factor XIa; HFXIa 1111a
Assay: SPR (Biacore T200), antibody captured on Protein A chip, FXIa as analyte, 1:1 Langmuir fit
Excerpt: (§1) A certain amount of antibodies to be tested was affinity-captured using a Protein A biosensor chip (Cat. #29127556, GE), then FXI/FXIa at a series of concentration gradients flowed through the surface of the chip. The reaction signals were detected in real time using a Biacore instrument (Biacore T200, GE) to obtain association and dissociation curves. After dissociation was completed for each cycle, the biochip was washed and regenerated with a regeneration solution prepared in a human antibody capture kit or a glycine-hydrochloric acid regeneration solution (pH 1.5, Cat. #BR-1003-54, GE). The buffer used in the experiment was HBS-EP+10× buffer (Cat. #BR-1006-69, GE) diluted to 1× (pH 7.4) with double distilled water.
(§2) The data obtained from the experiment were fitted using BIAevaluation version 4.1, GE software using a (1:1) Langmuir model to obtain affinity values. The test results of part of antibodies are shown in FIG. 1A, FIG. 1B and Table 6 below.

| Kd [pM] | koff [s⁻¹] | kon [M⁻¹ s⁻¹] | Binder |
| --- | --- | --- | --- |
| 570 | 0.000708 | 1.24e+06 | B2 |
| 364 | 0.000387 | 1.06e+06 | B3 |
| 220 | 0.000336 | 1.53e+06 | B4 |
| 22.2 | 1.79e-05 | 873000 | B8 |
| 148 | 0.000235 | 1.59e+06 | B7 |

Target: T1, Human FXI protein (coagulation factor …)
Assay: SPR (Biacore T200), antibody captured on Protein A chip, FXI as analyte, 1:1 Langmuir fit
Excerpt: as §1, §2

| Kd [pM] | koff [s⁻¹] | kon [M⁻¹ s⁻¹] | Binder |
| --- | --- | --- | --- |
| 20 | 2.66e-05 | 1.32e+06 | B2 |
| 29.6 | 5.85e-05 | 1.97e+06 | B3 |
| 37.8 | 3.02e-05 | 799000 | B4 |
